Reference: patent US12338277

Assays:
Test in all cases: cell-based or functional assay
[1] = molecular target: HIV-1 envelope of pseudovirus Ce704809221_1B3 (HIV-1)
[2] = molecular target: HIV-1 envelope of pseudovirus Ce1176_A3 (HIV-1)
[3] = molecular target: HIV-1 envelope of pseudovirus ZM247v1(Rev-) (HIV-1)
[4] = molecular target: HIV-1 Env of pseudovirus 263-8 (HIV-1)
[5] = molecular target: HIV-1 envelope of pseudovirus 3016.v5.c45 (HIV-1)
[6] = molecular target: HIV-1 envelope of pseudovirus Ce2060_G9 (HIV-1)
[7] = molecular target: HIV-1 Env of pseudovirus CNE19 (HIV-1)
[8] = molecular target: HIV-1 Env of pseudovirus ZM135M.PL10a (HIV-1)
[9] = molecular target: HIV-1 envelope of pseudovirus CNE21 (HIV-1)
[10] = molecular target: HIV-1 envelope of pseudovirus 235-47 (HIV-1)
[11] = molecular target: HIV-1 envelope of pseudovirus CNE8 (HIV-1)
[12] = molecular target: HIV-1 Env of pseudovirus CAAN5342.A2 (HIV-1)
[13] = molecular target: HIV-1 envelope spike of pseudovirus BaL.26 (HIV-1)
[14] = molecular target: HIV-1 Env of pseudovirus Ce2010_F5 (HIV-1)
[15] = molecular target: HIV-1 Env of pseudovirus CNE17 (HIV-1)
[16] = molecular target: HIV-1 envelope of pseudovirus T278-50 (HIV-1)
[17] = molecular target: HIV-1 envelope of pseudovirus CNE58 (HIV-1)
[18] = molecular target: HIV-1 Env of pseudovirus THRO4156.18 (HIV-1)
[19] = molecular target: HIV-1 envelope of pseudovirus 620345.c01 (HIV-1)
[20] = molecular target: HIV-1 Env of pseudovirus CNE21 (HIV-1)
[21] = molecular target: HIV-1 envelope of pseudovirus 6952.v1.c20 (HIV-1)
[22] = molecular target: HIV-1 envelope of pseudovirus CAP45.2.00.G3 (HIV-1)
[23] = molecular target: HIV-1 Env of pseudovirus 3415.v1.c1 (HIV-1)
[24] = molecular target: HIV-1 Env of pseudovirus Ce1176_A3 (HIV-1)
[25] = molecular target: HIV-1 Env of pseudovirus C1080.c03 (HIV-1)
[26] = molecular target: HIV-1 envelope of pseudovirus 231965.c01 (HIV-1)
[27] = molecular target: HIV-1 Env of pseudovirus 6545.v4.c1 (HIV-1)
[28] = molecular target: HIV-1 envelope of pseudovirus T250-4 (HIV-1)
[29] = molecular target: HIV-1 envelope of pseudovirus CNE52 (HIV-1)
[30] = molecular target: HIV-1 Env of pseudovirus Q451.e2 (HIV-1)
[31] = molecular target: HIV-1 envelope of pseudovirus Du156.12 (HIV-1)
[32] = molecular target: HIV-1 Env of pseudovirus ZM247v1(Rev-) (HIV-1)
[33] = molecular target: HIV-1 envelope of pseudovirus 1394C9G1(Rev-) (HIV-1)
[34] = molecular target: HIV-1 Env of pseudovirus 3103.v3.c10 (HIV-1)
[35] = molecular target: HIV-1 envelope of pseudovirus X1632_S2_B10 (HIV-1)
[36] = molecular target: HIV-1 envelope spike of pseudovirus 6535.3 (HIV-1)
[37] = molecular target: HIV-1 envelope of pseudovirus X1193_c1 (HIV-1)
[38] = molecular target: HIV-1 Env of pseudovirus R2184.c04 (HIV-1)
[39] = molecular target: HIV-1 envelope of pseudovirus Ce703010054_2A2 (HIV-1)
[40] = molecular target: HIV-1 envelope of pseudovirus 6535.3 (HIV-1)
[41] = molecular target: HIV-1 Env of pseudovirus 191821_E6_1 (HIV-1)
[42] = molecular target: HIV-1 Env of pseudovirus Ce2060_G9 (HIV-1)
[43] = molecular target: HIV-1 envelope spike of pseudovirus R1166.c1 (HIV-1)
[44] = molecular target: HIV-1 envelope of pseudovirus Ce0393_C3 (HIV-1)
[45] = molecular target: HIV-1 envelope of pseudovirus 263-8 (HIV-1)
[46] = molecular target: HIV-1 envelope of pseudovirus TRJO4551.58 (HIV-1)
[47] = molecular target: HIV-1 Env of pseudovirus Du422.1 (HIV-1)
[48] = molecular target: HIV-1 Env of pseudovirus C4118.c09 (HIV-1)
[49] = molecular target: HIV-1 envelope of pseudovirus CNE20 (HIV-1)
[50] = molecular target: HIV-1 Env of pseudovirus X1632_S2_B10 (HIV-1)
[51] = molecular target: HIV-1 Env of pseudovirus C3347.c11 (HIV-1)

PGT121 (antibody)
IC50 (TZM-bl neutralization) [1]: 0.098 µg/mL | IC50 (TZM-bl neutralization) [2]: 0.017 µg/mL | IC50 (TZM-bl neutralization) [3]: 0.027 µg/mL | IC80 (TZM-bl neutralization) [4]: 24.6 µg/mL | IC50 (TZM-bl neutralization) [5]: > 50 µg/mL | IC50 (TZM-bl neutralization) [6]: > 50 µg/mL | IC80 (TZM-bl neutralization) [7]: 0.189 µg/mL | IC80 (TZM-bl neutralization) [8]: 5.88 µg/mL | IC50 (TZM-bl neutralization) [9]: 0.02 µg/mL | IC50 (TZM-bl neutralization) [10]: 0.332 µg/mL | IC50 (TZM-bl neutralization) [11]: > 50 µg/mL | IC80 (TZM-bl neutralization) [12]: 0.051 µg/mL | IC50 (TZM-bl neutralization assay) [13]: 0.021 µg/mL | IC80 (TZM-bl neutralization assay) [13]: 0.081 µg/mL | IC80 (TZM-bl neutralization) [14]: > 50 µg/mL | IC80 (TZM-bl neutralization) [15]: > 50 µg/mL | IC50 (TZM-bl neutralization) [16]: > 50 µg/mL | IC50 (TZM-bl neutralization) [17]: > 50 µg/mL | IC80 (TZM-bl neutralization) [18]: > 50 µg/mL | IC50 (TZM-bl neutralization) [19]: > 50 µg/mL | IC80 (TZM-bl neutralization) [20]: 0.061 µg/mL | IC50 (TZM-bl neutralization) [21]: 0.085 µg/mL | IC50 (TZM-bl neutralization) [22]: 0.086 µg/mL | IC80 (TZM-bl neutralization) [23]: > 50 µg/mL | IC80 (TZM-bl neutralization) [24]: 0.058 µg/mL | IC80 (TZM-bl neutralization) [25]: > 50 µg/mL | IC50 (TZM-bl neutralization) [26]: > 50 µg/mL | IC80 (TZM-bl neutralization) [27]: > 50 µg/mL | IC50 (TZM-bl neutralization) [28]: 0.001 µg/mL | IC50 (TZM-bl neutralization) [29]: 3.74 µg/mL | IC80 (TZM-bl neutralization) [30]: > 50 µg/mL | IC50 (TZM-bl neutralization) [31]: 0.007 µg/mL | IC80 (TZM-bl neutralization) [32]: 0.126 µg/mL | IC50 (TZM-bl neutralization) [33]: 0.486 µg/mL | IC80 (TZM-bl neutralization) [34]: 0.11 µg/mL | IC50 (TZM-bl neutralization) [35]: > 50 µg/mL | IC50 (TZM-bl neutralization assay) [36]: 0.007 µg/mL | IC80 (TZM-bl neutralization assay) [36]: 0.041 µg/mL | IC50 (TZM-bl neutralization) [37]: 0.045 µg/mL | IC80 (TZM-bl neutralization) [38]: > 50 µg/mL | IC50 (TZM-bl neutralization) [39]: > 50 µg/mL | IC50 (TZM-bl neutralization) [40]: 0.008 µg/mL | IC80 (TZM-bl neutralization) [41]: > 50 µg/mL | IC80 (TZM-bl neutralization) [42]: > 50 µg/mL | IC50 (TZM-bl neutralization assay) [43]: > 40 µg/mL | IC80 (TZM-bl neutralization assay) [43]: > 40 µg/mL | IC50 (TZM-bl neutralization) [44]: > 50 µg/mL | IC50 (TZM-bl neutralization) [45]: 3.35 µg/mL | IC50 (TZM-bl neutralization) [46]: 3.73 µg/mL | IC80 (TZM-bl neutralization) [47]: 0.131 µg/mL | IC80 (TZM-bl neutralization) [48]: > 50 µg/mL | IC50 (TZM-bl neutralization) [49]: 0.002 µg/mL | IC80 (TZM-bl neutralization) [50]: > 50 µg/mL | IC80 (TZM-bl neutralization) [51]: > 50 µg/mL
